# Results taken from paper doi:10.1101/2021.03.30.437644.
# T1: HYH (bZIP64) (Arabidopsis thaliana (Col-0), UniProt Q8W191 1-149)
# T1 sequence: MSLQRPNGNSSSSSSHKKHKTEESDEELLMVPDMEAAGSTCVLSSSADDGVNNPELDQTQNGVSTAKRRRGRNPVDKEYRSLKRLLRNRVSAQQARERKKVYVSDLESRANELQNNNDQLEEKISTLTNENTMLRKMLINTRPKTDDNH
# T2: bZIP16 (Arabidopsis thaliana (Col-0), UniProt Q501B2 1-409)
# T2 sequence: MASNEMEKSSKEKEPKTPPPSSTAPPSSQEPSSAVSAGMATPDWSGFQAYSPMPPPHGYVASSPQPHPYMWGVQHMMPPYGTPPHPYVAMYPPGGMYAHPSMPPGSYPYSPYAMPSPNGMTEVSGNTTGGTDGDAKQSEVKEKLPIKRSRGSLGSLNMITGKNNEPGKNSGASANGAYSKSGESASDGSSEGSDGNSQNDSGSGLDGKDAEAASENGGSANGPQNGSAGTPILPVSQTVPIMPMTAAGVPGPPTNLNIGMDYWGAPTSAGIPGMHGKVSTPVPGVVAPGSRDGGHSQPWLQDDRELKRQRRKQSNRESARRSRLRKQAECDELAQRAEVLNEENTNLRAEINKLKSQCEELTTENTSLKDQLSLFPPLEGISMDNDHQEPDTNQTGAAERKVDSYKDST
# T3: SLIM1 (Arabidopsis thaliana (Col-0), UniProt O23116 1-567)
# T3 sequence: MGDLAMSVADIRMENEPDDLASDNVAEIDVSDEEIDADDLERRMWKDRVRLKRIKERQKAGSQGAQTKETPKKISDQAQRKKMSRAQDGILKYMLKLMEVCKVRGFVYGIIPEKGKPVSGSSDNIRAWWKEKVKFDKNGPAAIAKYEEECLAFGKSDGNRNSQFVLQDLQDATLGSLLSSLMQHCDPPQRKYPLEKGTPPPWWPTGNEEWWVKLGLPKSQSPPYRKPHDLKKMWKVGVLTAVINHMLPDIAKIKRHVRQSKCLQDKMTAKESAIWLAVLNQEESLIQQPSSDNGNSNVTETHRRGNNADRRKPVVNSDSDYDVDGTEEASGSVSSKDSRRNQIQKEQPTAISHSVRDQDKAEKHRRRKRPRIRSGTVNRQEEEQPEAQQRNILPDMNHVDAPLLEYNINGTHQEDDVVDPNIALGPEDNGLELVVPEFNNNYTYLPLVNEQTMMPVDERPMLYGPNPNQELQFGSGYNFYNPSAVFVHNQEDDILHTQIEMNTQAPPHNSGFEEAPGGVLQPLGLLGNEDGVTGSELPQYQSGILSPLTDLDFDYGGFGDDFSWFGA
# T4: GBF1 (bZIP41) (Arabidopsis thaliana (Col-0), UniProt P42774 1-315)
# T4 sequence: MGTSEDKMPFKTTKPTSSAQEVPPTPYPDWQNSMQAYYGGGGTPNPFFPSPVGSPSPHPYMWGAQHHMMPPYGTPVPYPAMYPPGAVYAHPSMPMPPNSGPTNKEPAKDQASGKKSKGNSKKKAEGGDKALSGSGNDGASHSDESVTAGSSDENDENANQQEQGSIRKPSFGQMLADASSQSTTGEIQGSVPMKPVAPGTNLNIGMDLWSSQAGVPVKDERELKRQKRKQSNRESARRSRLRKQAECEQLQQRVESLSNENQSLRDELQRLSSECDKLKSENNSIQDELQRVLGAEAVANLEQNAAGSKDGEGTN
# Key:
# bZIP44 [1] = target: T5, bZIP44 (Arabidopsis thaliana (Col-0), UniProt C0Z2L5 1-173); assay: competition EMSA
# HYH (bZIP64) [2] = target: T1, HYH (bZIP64); assay: competition EMSA
# bZIP16 [3] = target: T2, bZIP16; assay: competition EMSA
# SLIM1 = target: T3, SLIM1; assay: EMSA
# bZIP44 [4] = target: T5, bZIP44; assay: EMSA
# HYH (bZIP64) [5] = target: T1, HYH (bZIP64); assay: EMSA
# bZIP16 [6] = target: T2, bZIP16; assay: EMSA
# GBF1 (bZIP41) = target: T4, GBF1 (bZIP41); assay: EMSA
# T5 sequence (C0Z2L5 whole entry): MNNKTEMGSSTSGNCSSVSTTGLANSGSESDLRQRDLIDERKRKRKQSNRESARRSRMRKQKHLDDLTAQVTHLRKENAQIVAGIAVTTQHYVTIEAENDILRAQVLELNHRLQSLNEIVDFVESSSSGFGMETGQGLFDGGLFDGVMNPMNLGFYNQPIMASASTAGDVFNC
binder,measurement,setting,value
Mutated probe 4 (dsDNA) DNA 1: GACGGATAGGGTAAAAGGCACTATTTTATA DNA 2: TATAAAATAGTGCCTTTTACCCTATCCGTC,binding result,bZIP44 [1],no binding
same,binding result,HYH (bZIP64) [2],no binding
same,binding result,bZIP16 [3],no binding
Probe 2 (proxSDI2) (dsDNA) DNA 1: GAGAGATAAAGAAGGTTTCTTCATTTAGAAACAGAGACACGAAGTTTGCG DNA 2: CGCAAACTTCGTGTCTCTGTTTCTAAATGAAGAAACCTTCTTTATCTCTC,binding result,SLIM1,binds
Probe 1 (proxSDI1) (dsDNA) DNA 1: GTGGTAAGAAGTCTCCAAGTGACGTGGCAGCTTCTATGAACAGAGACGAA DNA 2: TTCGTCTCTGTTCATAGAAGCTGCCACGTCACTTGGAGACTTCTTACCAC,binding result,SLIM1,binds
Probe 4 (proxSDI2) (dsDNA) DNA 1: GACGGATAGGGTACGTGGCACTATTTTATA DNA 2: TATAAAATAGTGCCACGTACCCTATCCGTC,binding result,bZIP44 [4],binds
same,binding result,HYH (bZIP64) [5],binds
same,binding result,bZIP16 [6],binds
Probe 3 (proxSDI2) (dsDNA) DNA 1: GACCAGCCCGCGGTATTTTAGATCCAGTTGACGATAATGAACCAAGACGA DNA 2: TCGTCTTGGTTCATTATCGTCAACTGGATCTAAAATACCGCGGGCTGGTC,binding result,GBF1 (bZIP41),binds
